Measurements published in patent publication US20110250165A1.

B1: 2N-Fc (Fc fusion, part only; not given: linker and human IgG1 hinge-Fc, not shown: another chain or arm of the molecule; a dimerising Fc or GST; small tags and cut ends)
VH: EVQLVESGGGVVQPGRSLRLSCAASGFTFSSYGMHWVRQAPGKGLEWVAVISYDGSNKYYADSVKGRFTISRDNSKNTLYLQVSSLRAEDTAVYYCVRDLVAAAGTAFDIWGQGTTVTVSS
VL: QPVLTQPRSVSGSPGQSVTISCTGTISDVGGHNFVSWYQQNPGKAPKLIIFEVTKRPAGVPDRFSGSKSGNTASLTVSGLQAEDEGEYYCSSYGGSNDVIFGGGTKLSVL
B2: 20-Fc (Fc fusion, part only; not given: linker and human IgG1 hinge-Fc, not shown: another chain or arm of the molecule; a dimerising Fc or GST; small tags and cut ends)
VH: EVQLVQSGGGLVQPGGSLRLSCAASGFTFSSYAMSWVRQAPGKGLEWVANIKQDGSEKYYVDSVKGRFTISRDNAKNSLYLQMNSLRAEDTAVYYCARDQVSGITIFGGKWRSPDVWGQGTTVTVSS
VL: SSELTQDPAVSVALGQTVRITCQGDSLRSYYASWYQQKPGQAPVLVIYGKNNRPSGIPDRFSGSKSHNTAYLTITGAQAEDEADYFCNSRSGSQRVFGGGTKLTVL
B3: 6R-Fc (Fc fusion, part only; not given: VH-VL linker, hinge and IgG1 Fc, not shown: another chain or arm of the molecule; a dimerising Fc or GST; small tags and cut ends)
VH: QVQLQQSGPGLVKPSQTLSLTCAVSGDSVSSNFVAWNWIRQSPSRGLEWLGRTYYRSRWYNDYAVSVQSRIRVTPDTSKNQFSLHLDSVTPEDTAVYYCARGQHSGFDFWGQGTLVTVSS
VL: QSVLTQPPSVSKGLRQTATLTCTGNSNNVGNQGAAWLQQHQGHPPKLLSYRNNNRPSGISERFSASRSGNTASLTITGLQPEDEADYYCSAWDNRLKTYVFGTGGKVTVL
B4: 33-Fc (Fc fusion, part only; not given: linker and human IgG1 hinge-Fc, not shown: another chain or arm of the molecule; a dimerising Fc or GST; small tags and cut ends)
VH: QVTLKESGGGVVQPGRSLRLSCAASGFTFTNYGLHWVRQAPGKGLEWVAVISHDGTKKYYADSVKGRFTISRDSSENTLYLQMNSLRPEDSALYYCARDGGYCSGGRCYSYGMDVWGQGTTVTVSS
VL: QSVLTQPPSASGTPGQRVTISCSGSRSNIGSNTVNWYQQLPGTAPKLLIYTNNQRPSGVPDRFSGSKSGTSASLAITGLQAEDEADYYCLSFDSSLTSYVFGTGTKVTVL
B5: 33-IgG1 (antibody, V domains shown)
VH: QVTLKESGGGVVQPGRSLRLSCAASGFTFTNYGLHWVRQAPGKGLEWVAVISHDGTKKYYADSVKGRFTISRDSSENTLYLQMNSLRPEDSALYYCARDGGYCSGGRCYSYGMDVWGQGTTVTVSS
VL: QSVLTQPPSASGTPGQRVTISCSGSRSNIGSNTVNWYQQLPGTAPKLLIYTNNQRPSGVPDRFSGSKSGTSASLAITGLQAEDEADYYCLSFDSSLTSYVFGTGTKVTVLG

How the values were obtained:
[1] = target: ΔN31-CXCR4 (human) (UniProt P61073); assay: FACS on 293T cells expressing CXCR4 variants
[2] = target: 4442 CXCR2/CXCR4 chimera; assay: FACS on 293T cells expressing CXCR4 variants
[3] = target: 2444b CXCR2/CXCR4 chimera (human) (UniProt P25025); assay: FACS on 293T cells expressing CXCR4 variants
[4] = target: human CXCR4 (wild type) (human) (UniProt P61073); assay: FACS on 293T cells expressing CXCR4 variants
[5] = target: ΔN25-CXCR4 (human) (UniProt P61073); assay: FACS on 293T cells expressing CXCR4 variants
[6] = target: 2442 CXCR2/CXCR4 chimera; assay: FACS on 293T cells expressing CXCR4 variants
[7] = target: 2242 CXCR2/CXCR4 chimera; assay: flow cytometry, scFv-Fc on transfected 293T cells, FITC anti-human IgG
[8] = target: 4442 CXCR2/CXCR4 chimera; assay: as above
[9] = target: 2444b CXCR2/CXCR4 chimera (human) (UniProt P25025); assay: as above
[10] = target: rhesus macaque monkey CXCR4 (rhesus macaque) (UniProt P79394); assay: as above
[11] = target: mouse CXCR4 (mouse) (UniProt P70658); assay: as above
[12] = target: CXCR2 (UniProt P25025); assay: as above
[13] = target: human CXCR4 (wild type) (human) (UniProt P61073); assay: as above
[14] = target: Δ-X4; assay: as above
[15] = target: 2442 CXCR2/CXCR4 chimera; assay: as above
[16] = target: rhesus macaque monkey CXCR4 (rhesus macaque) (UniProt P79394); assay: flow cytometry, scFv-Fc on transfected 293T cells

Sequence of 2444b CXCR2/CXCR4 chimera (human) (P25025 other isoform, or with tags, fused parts or gaps mutant limits assumed): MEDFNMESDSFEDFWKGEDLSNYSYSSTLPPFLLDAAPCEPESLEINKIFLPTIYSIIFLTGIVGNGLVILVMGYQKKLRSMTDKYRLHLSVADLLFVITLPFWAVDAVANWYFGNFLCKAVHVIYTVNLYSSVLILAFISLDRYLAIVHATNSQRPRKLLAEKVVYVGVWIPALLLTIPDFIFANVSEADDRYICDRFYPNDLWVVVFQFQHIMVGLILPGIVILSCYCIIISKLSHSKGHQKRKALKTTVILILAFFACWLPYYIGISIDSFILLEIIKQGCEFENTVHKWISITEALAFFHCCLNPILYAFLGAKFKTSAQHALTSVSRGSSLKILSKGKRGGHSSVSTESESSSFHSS
Sequence of rhesus macaque monkey CXCR4 (rhesus macaque) (P79394 whole entry): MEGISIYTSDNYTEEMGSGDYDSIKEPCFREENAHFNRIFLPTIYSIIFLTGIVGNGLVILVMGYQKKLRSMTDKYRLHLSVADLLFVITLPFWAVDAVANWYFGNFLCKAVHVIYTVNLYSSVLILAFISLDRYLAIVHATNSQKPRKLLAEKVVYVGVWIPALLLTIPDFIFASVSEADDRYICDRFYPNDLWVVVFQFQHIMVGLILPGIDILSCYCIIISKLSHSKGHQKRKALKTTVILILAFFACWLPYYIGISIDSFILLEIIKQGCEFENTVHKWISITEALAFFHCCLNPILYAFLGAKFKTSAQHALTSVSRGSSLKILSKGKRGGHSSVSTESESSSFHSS
Sequence of human CXCR4 (wild type) (human) (P61073 whole entry): as the sequence (P79394 whole entry) above, with I24M, H35N, R38K, K146R, S176N, D214V counted along it
Sequence of CXCR2 (P25025 whole entry): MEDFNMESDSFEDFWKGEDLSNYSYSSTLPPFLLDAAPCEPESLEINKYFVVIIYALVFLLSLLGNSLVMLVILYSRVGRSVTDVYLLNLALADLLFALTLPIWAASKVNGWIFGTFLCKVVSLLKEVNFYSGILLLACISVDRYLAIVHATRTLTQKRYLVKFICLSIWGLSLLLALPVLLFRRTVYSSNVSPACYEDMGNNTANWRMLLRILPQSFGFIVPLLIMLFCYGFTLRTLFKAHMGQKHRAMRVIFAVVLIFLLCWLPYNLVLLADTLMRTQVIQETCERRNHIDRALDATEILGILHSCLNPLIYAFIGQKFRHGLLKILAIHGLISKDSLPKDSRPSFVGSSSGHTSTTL
Sequence of mouse CXCR4 (mouse) (P70658 whole entry): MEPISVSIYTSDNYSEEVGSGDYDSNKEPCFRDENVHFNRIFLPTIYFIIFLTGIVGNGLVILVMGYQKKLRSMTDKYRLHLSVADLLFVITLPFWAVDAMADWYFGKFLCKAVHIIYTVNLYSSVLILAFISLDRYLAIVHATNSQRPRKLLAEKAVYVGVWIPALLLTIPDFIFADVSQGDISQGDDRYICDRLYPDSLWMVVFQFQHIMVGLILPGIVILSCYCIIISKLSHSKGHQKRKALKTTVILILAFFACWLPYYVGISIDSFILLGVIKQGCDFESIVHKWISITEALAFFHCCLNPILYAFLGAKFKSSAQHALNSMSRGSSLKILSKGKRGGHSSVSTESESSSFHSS

Row | binding (+%) [1] [%] | binding (+%) [2] [%] | binding (+%) [3] [%] | binding (+%) [4] [%] | binding (+%) [5] [%] | binding (+%) [6] [%] | reactivity (MFI of chimeric receptor/MFI of wild type CXCR4 x 100%) [7] [%] | reactivity (MFI of chimeric receptor/MFI of wild type CXCR4 x 100%) [8] [%] | reactivity (MFI of chimeric receptor/MFI of wild type CXCR4 x 100%) [9] [%] | reactivity (MFI of chimeric receptor/MFI of wild type CXCR4 x 100%) [10] [%] | reactivity (MFI of chimeric receptor/MFI of wild type CXCR4 x 100%) [11] [%] | reactivity (MFI of chimeric receptor/MFI of wild type CXCR4 x 100%) [12] [%] | reactivity (MFI of chimeric receptor/MFI of wild type CXCR4 x 100%) [13] [%] | reactivity (MFI of chimeric receptor/MFI of wild type CXCR4 x 100%) [14] [%] | reactivity (MFI of chimeric receptor/MFI of wild type CXCR4 x 100%) [15] [%] | decrease of binding compared to human CXCR4 [16] [%] | Binder
1 | -7 | 89.1 | -6.2 | 100 | -6.3 | -1.2 | 1.2 | 61 | 8.3 | 98.3 | 3.6 | 4.7 | 100 | -1.6 | 4.5 |  | B1
2 |  |  |  |  |  |  | 11.6 | 27.9 | 12.9 | 77.5 |  | 4.1 | 100 | 9.6 | 7.6 |  | B2
3 | 12.8 | -0.4 | 2.2 | 100 | 60 | -3.4 | 1 | 1.4 | 4.7 | 41.9 |  |  | 100 | 16.6 | 3.7 | 60 | B3
4 |  |  |  |  |  |  | 0.3 | 15.5 | 0.7 | 103 | 2.1 | -0.52 | 100 | 3.1 | 0.7 |  | B4
5 | 9 |  |  |  | 13 |  |  |  |  |  |  |  |  |  |  |  | B5
